Laboratory results as given in the domain aggregation screens of Martell et al. (2025).

Experiment: soluble fraction after stress (log2 fold change); higher = more stays soluble; pooled small domains, quantitative proteomics
Conditions: stress: pH 4
Outline: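 With high-throughput quantitative proteomics, pooled custom libraries of small protein domains were measured after pH 4 stress. Each domain's soluble amount after the stress gives a fold change taken as aggregation propensity. Higher log2 values mean more of the domain stayed soluble.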

| Sequence | soluble fraction (log2) |
| --- | --- |
| HMDAKIEYTMSDLIENRLINSDDASMRREKLSEILKIGYGNGKKTLHKLNSFGITREEFEEAMKEVNSH | -0.0624 |
| HMSEYNPGIYRVTDPALNIRTGPGVEYPVVGVIKDQGSYTITEIRNKSWGRLLSGAGSTAIKHIVFT | -0.173 |
| HMVRKIRARLVLQLRAEGLSGRAIAGSQGMSRKSVTAVLDAADRAGIGWDEIAERSEGEVYALLFPGRG | -1.18 |
| HMSKEGLASLLEDINGLGAIRRKTLIDHFGSVAKIRGARPEEIAALPGMGRKIAEHILASLRED | 0.418 |
| HMIPSEQYNTALTEIGLSTRAHNSLRRAGIMTLGQLIEKTRDGLPPLPGFGDKSQVEVQDLLTGLGYPI | -1.03 |
| HMSKSPELMEKIKEFAEGYFRENGETPSNKTIAGAMGMGRSTVYYYLVDMAQRGMISYENGVISTEKIRKL | -0.65 |
| HMQNESGLFTMSDLWEAGLMGSENASRKRAAVGAFLGIGFGNGKQFLKRLNHFGVTKEEWESALEQLGE | -0.447 |
| HMGRLTTKIVLYDRIENIVPERRKELVADIEKRIGVKVEVLEIGHVDFVRDAAWLKVSYYLAPGE | -1.35 |
| HMEEFGRRLKERMIDKNMTEAELAQKTELWSSILTSYLKGERFPGYYTLLRIAEALDVSIDFLLGLRDEPE | -2.01 |
| HMIERKLRKKEHFIASVGEKVKIKNFATETYKGELISADNEKVVVETEFGKEEITYDNILAAATYFE | -1.01 |
| HMSGAWEVGLLRQFTDWMGTQYNAYAGRNFDAITVAQVAEKNPELLTPFVESFFKERVEPALAAG | -0.589 |
| HMVFTEEERAEYREKMLDAGFDLLKQYGMTHMSVAKITEAAGIGVSTFYNFFSSKEEYVYEVLQYRRRK | -0.392 |
| HMERFMEFVITDTQQGQRLDVVLTETTEHLGSRSHMQRSIRAGLVSIDGITTTRASTKVSSGQIIRVEPT | -0.629 |
| HMGIIQAQIPGLVSRLFVKKGDKVAVNQRLFILEAMKMENEIDSPIQGMVEKIHITTGSKVEKGDLIMEIV | ≥ 0.43 |
| HMRGVNEISYTTLISEVSGGNVRDVVISGDEITGTFNDGSRFHSFSPDDPQFIERLNDQGVIINVKPL | -0.904 |
| HMALKRVAPQGEDKLSAQLDGVEFDKLIPWLGMLEHDHRIAIVNLSIDRANATGLVNARVIL | 0.251 |
| HMNPVVATTIILDGEIIKDNLAEANLSEEWLLEELKRQNFNDVKEVFYAEWLDGKQLFAYPYTK | -0.789 |
| HMLSSEQQQKLDSLSRKELEVAELVSHGATNKMIARTMNITERTVKAHLTAIFQKMNIPDRLSLAIFFRDL | 0.0769 |
| HMRLSVVDLQDSLRGLEYPAGKGDLINHAREHNASADVIAVLEQFSERTYRSAADVGEEFGRV | -0.166 |
| HMRPEFVVALSGADLGKLHRLYELGEVLSREDDAEGVTHAVLRVPDKHEHAFHAEFPQARPM | -0.19 |
| HMVIPATPTARRAKIAGLLADRSVRSQGELLTLLADAGIEVTQATLSRDLEALGAVKVRDGRGLVYAVPG | 0.365 |
| HMDLIISDIRMPEMRGDDFLEWIKANELFKHIPVIMLSSEDSTTERIRLLEIGAEDYIVKPFNPMELKIR | -1.01 |
| HMEINKLIELIGGYKALSEVLNVSKSAISNYKKRGSLPSYAIPIIVKELKSKGISIDLSEFT | -0.0727 |
| HMNTVSPAVSAQLRQELGGELNNANFQQLQQYLQAGQRDEAIVYLTSLGIESPRAVSIVNNAMDQIG | 0.00938 |
| HMGRENGTVKWFNTSKGFGFITRDDGGDVFVHFRSIQGEGHRALQEGQRVSYVVANRDKGLQAEDVTILN | -0.107 |
| HMVSKIEAPLPGIILSVDVKEGDTVKAGDKLMVMEAMKMENAILAETNGVVKSIKVKIQDSVLQGDILAEI | -1.07 |
| HMDISRMNLSQTERAVLSVLDSQPLHTEEIIASADLRAGAIHSALISLQLKGLIKQLPGNLYVK | -0.035 |
| HMEATILTATPEAAGQRLDAFLAETLPELTRSAAQRLIAEGQVAVDGKIPTKSLKLAGGETVSVRLPEPE | -0.0707 |

| Sequence | soluble fraction (log2) |
| --- | --- |
| HMNTLRFPEGTPEKDRMSIILASYNSGIGHVNDARRLARLNGEDPNSWEVVARYLQLKAQPEYYESEAVK | -0.548 |
| HMKPDAAKREQLIDIALRLFSQQGIARTSLNAIAREAGVTPAMLHYYFNSREQLLDVMIEERFL | -1.45 |
| HMSDLGEIEKIVDEVLAENITKVQEYKDGKKGLMGMFMGQIMKKSGGKADPKIANQLLTEKL | 0.138 |
| HMELLEVSVIIREADSTGWSAARQGMEQAAADLGAELRFLTLSQSNSAEEQRSLLAREVEGGADAVVLV | ≥ 0.43 |
| HMQITQSSEPIDVSALRLGMFIHLEGGWLSHPFPRSSFKITSEDQLVTLRSLGISVLRWSPELSDPE | -1.46 |
| HMLSRTYDSSGPDVKIRGTAQTVADKYMSLARDAQSSGDRVMAENYLQHAEHYNRIIAAAQAQ | 0.221 |
| HMGLDERNLKLFAASLLEQAGKKITESTMTYLLDKTGSDMENIQNEVEKIIGYTMNHTVVTTEDIDAV | -0.745 |
| HMFDREKFIKLGQEFARVAFENVNKRATDRALKTAAKHYGLPSADELLARLGSSEIAARDVVAELYPNL | -0.28 |
| HMEKLNERLLYLRKNANLTQQQLADKLHISNKTISQWETGRTLPDIVMLVRLAEIYDMKLDELLNQ | 0.074 |
| HMIPLKTEAIPVSYGDGAAIIRSLAVAFPSRTFHWDAQTRRIIGQALDEEWQVIRSLVWQLDIP | -1.06 |
| HMSRRIEIELTSSRPDGSWTWRAAGAREPKGVLDGTLLSQGSKPGDVVKAEAEFDIDGITIVSITQ | 0.0267 |
| HMRITRREQQVLHLLAMGMTTREIAGHINLTERTVRNRISNLRDKLGAQTASQLLAKAVAQGLIEP | 0.426 |
| HMGEVPVETKDGIKVHVHTVDKSQTAYGISRLYNITLNELYESNPEAKLELSIGQKLYFPVK | -0.426 |
| HMLLRSEDAIELGKSQLEDALAPYKIETLDTGTVQQLLDSLKLNSLESLYQEIGLGNRMSTIIAHRLLGE | -0.88 |
| HMNNVRIEHIDTIGTVRLHKKRGVKRVSLRIHQSGEIRVTQPLYLPFSAGVLFAKSHTEWIMKQKQK | 0.0224 |
| HMTAKRELILRVFMDSNGKLLSIDDVFMEMRKKRSHRTSKMTVKRAIDLLVDLGLLKEVLFDDDNIKYEYV | -0.105 |
| HMETLSKVGSTGSEVRQIQTKLKNWGYFSDKVDGIYGEKTRAAVVWFQKKNGLTADGIAGPATLKAMGIYT | ≥ 0.43 |
| HMTLNQEELMGKTEAILFAGGEPVSLDRIAQVLGVRTPVIDSIVSALQEKYNTPTSGIQLMRL | -0.467 |
| HMDISEIEKRLLDFLEMPRSRKEIAEHLGIRTISYAIQTYITPLIDKKLVKMTIPESPRSHSQQYVRIN | -0.125 |
| HMGGLAVQLVHAMTDQIRSGRLKAGDKLPTEAAIMKDFGVSRTVVREAISRLQASGWVDTRHGIGTFVLHQ | 0.188 |
| HMRREKVLIKLAENLASKVLRTKKSIELEPMTPYERKVIHTTIENISGVKSWSEGENLQRHLIVALDE | 0.188 |
| HMAKRQATIVYEGTNVRSGPSTSSAIVKRTGKGESYPIVSTKGDWYEIKLSNGDSAYVASWVVQTVD | -0.871 |
| HMVLVSNYGEVVRKARERKGLDHGSLAMKISEKKSIITSVESGNMKPNEKLIKKLENFLNINLM | -0.471 |
| HMGLLGTDISAETMIGYFKKIDLGFDEETQEVIVPSWRQDLLRDADIAEEVARFYGYDNIPTTLPSGEST | -0.736 |
| HMGRNSTPKEPLKKFEVSPITEKEVRILDGRFGPYITDGATNVTVPKTITIEEITFERALDMLAEKAAKGP | -0.153 |
| HMGTFIATVEANSLDIYKSMSSNETIGKANKGEVFQILEDMGSGYARVSYNDVEGYLSIRDGDATIEE | -1.54 |
| HMDTINEYERNILSLITSKPGISAVQIAADTDKSIITAKRGIKTLVDGKLIEYRGSKKTGGYFLLTQS | 0.275 |
